From patent US20240101710A1 (ALLOGENE THERAPEUTICS, published 2024)

Target: T1, anti-BCMA antibody clone C29 Fab
T1 construct: also called anti-BCMA clone C29 Fab
Test: Biacore (SPR), 25 C, HEPES buffer pH 7.4
Protocol: E10 purified from the hybridoma cell line supernatant was analyzed by Biacore assay against the antigen anti-BCMA clone C29 Fab. The Biacore assay was run, for example, in 10 mM HEPES buffer, with 150 mM NaCl and 0.05% Tween20 at pH 7.4 and 1 mg/mL BSA at 25° C.

T1 sequence (VH, as listed by the source, chain 1 of 2): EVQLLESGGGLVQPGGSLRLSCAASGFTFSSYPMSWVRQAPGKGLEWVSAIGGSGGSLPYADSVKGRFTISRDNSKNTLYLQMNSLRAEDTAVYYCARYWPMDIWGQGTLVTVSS
T1 sequence (VL, as listed by the source, chain 2 of 2): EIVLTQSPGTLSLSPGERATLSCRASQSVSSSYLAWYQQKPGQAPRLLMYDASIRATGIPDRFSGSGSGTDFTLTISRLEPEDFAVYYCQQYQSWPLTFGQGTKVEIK

B1: anti-idiotypic antibody clone 87B12.E10 (E10), purified from hybridoma cell line (antibody, V domains shown)
VH: QVQLQQSGPGLVQPSQSLSIPCTVSGFSLTSYDVHWVRQSPGKGLEWLGVIWSGGSTGYNAIFRSRLSINKDNSKSQVFFKMTSLQPDDTAIYYCANFSPWYLPSYWDQGTLVTVSA
VL: QIVLTQSPAIMSASPGEKVTITCSASSNVSYMHWFQQKPGTSPKLWIYSTSNLASGVPARFSGSGSGTSYSLTISRMEAEDAATYYCQQRSSYPLTFGAGTKLELK
notes: Mouse (Balb/c) hybridoma antibody; also called E10 purified Ab from hybridoma cell line
Kd: 0.11 nM | koff: 0.000157 s⁻¹ | kon: 1.48e+06 M⁻¹ s⁻¹ | t1/2: 1.23 h
